Experimental data: publication PMC4315616

Columns and labels:
[1] = molecular target: T1, SNV nucleocapsid protein N wild type (SNVN) (Sin Nombre hantavirus, UniProt Q89462 1-428); assay: BLI
T1 sequence: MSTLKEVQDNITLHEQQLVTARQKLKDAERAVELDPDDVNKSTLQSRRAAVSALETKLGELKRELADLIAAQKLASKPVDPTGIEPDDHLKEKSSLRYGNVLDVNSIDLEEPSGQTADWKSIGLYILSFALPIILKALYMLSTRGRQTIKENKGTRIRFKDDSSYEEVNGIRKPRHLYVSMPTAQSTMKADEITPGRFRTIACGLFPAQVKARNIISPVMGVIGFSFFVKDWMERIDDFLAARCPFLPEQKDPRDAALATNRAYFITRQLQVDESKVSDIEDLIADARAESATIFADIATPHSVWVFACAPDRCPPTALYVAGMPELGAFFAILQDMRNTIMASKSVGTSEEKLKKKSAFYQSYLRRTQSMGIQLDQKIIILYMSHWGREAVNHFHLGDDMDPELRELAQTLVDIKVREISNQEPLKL

[2] = molecular target: T1, SNV nucleocapsid protein N wild type …; assay: filter binding
[3] = molecular target: T1, SNV nucleocapsid protein N wild type …; assay: BLI; remark: listed apart in the source
[4] = molecular target: T1, SNV nucleocapsid protein N wild type …; assay: filter binding; remark: listed apart in the source

What does the source list for GAUAUGUGAG (ssRNA, 5' mRNA cap (enzymatic, Cell Script)) [capped decameric RNA]?
Kd [1]: 106 ± 5.7 nM; Kd [2]: 120 ± 0.6 nM; Kd [3]: 107.8 ± 0.7 nM

Which Kd [1] does the source give for GAUAUGUGAG (ssRNA) [uncapped decameric RNA] here?
Its Kd is 477 ± 6.8 nM.

And the binding signal [4]?
Its binding signal is ~4 fold lower affinity than capped.
